Target: T1, human GARP (Glycoprotein A Repetitions Predominant, LRRC32) stably expressed on Pre-B (70Z/3) cells (human, UniProt Q14392 20-662)
T1 construct: whole, on cells; also called hGARP; huGARP
T1 sequence (looked up): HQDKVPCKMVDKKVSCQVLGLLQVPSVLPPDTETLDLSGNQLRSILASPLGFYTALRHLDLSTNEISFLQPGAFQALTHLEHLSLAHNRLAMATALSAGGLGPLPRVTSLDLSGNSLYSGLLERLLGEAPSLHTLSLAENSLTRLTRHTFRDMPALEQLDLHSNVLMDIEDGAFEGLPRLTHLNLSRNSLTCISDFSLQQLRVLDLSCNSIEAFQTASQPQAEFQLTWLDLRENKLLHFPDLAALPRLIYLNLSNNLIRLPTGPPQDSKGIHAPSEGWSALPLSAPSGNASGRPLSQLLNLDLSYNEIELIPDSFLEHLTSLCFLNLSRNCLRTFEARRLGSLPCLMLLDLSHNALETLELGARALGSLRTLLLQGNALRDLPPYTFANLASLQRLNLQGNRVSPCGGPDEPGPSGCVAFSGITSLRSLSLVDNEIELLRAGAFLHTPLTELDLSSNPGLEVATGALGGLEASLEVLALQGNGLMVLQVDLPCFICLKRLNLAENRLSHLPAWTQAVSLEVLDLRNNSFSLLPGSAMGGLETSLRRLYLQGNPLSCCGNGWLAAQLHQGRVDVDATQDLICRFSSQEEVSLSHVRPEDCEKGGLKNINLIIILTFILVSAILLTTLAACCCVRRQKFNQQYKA
Experiment: flow cytometry on Pre-B cells stably expressing human GARP (FIG. 7A)

- binding result: binds
B1: 5C5 anti-GARP monoclonal antibody (antibody, V domains shown)
VH: EVKLVESGGGSVKPGGSLKLSCAASGFTFSNYVMSWVRQTPEKRLEWVATISSGGSYTYYPDSVKGRLTISRDNAKNTLYLQMSSLRSEDTAMYYCARGYDNGDYVMDYWGQGTSVTVSS
VL: DIVLTQSPASLAVSLGQRATISCRASESVDTYGNSFMHWYQQIPGQPPKVLIYRASNLESGIPARFSGSGSRTDFTLTINPVEAGDVATYYCQQTNEHPPTFGGGTKLEIK
notes: Mouse hybridoma mAb; also called 5C5 (IgG2a)
